The values below come from patent publication US20240018502A1.

Numbering of substitutions follows the chain as printed. Names and notes keep the numbering of the source.

In the assay the target is plasma purified human complement protein C3 (human) (UniProt P01024). The experiment in a line: cell-based or functional assay.
Sequence of plasma purified human complement protein C3 (human) (P01024 23-667, chain 1 of 2): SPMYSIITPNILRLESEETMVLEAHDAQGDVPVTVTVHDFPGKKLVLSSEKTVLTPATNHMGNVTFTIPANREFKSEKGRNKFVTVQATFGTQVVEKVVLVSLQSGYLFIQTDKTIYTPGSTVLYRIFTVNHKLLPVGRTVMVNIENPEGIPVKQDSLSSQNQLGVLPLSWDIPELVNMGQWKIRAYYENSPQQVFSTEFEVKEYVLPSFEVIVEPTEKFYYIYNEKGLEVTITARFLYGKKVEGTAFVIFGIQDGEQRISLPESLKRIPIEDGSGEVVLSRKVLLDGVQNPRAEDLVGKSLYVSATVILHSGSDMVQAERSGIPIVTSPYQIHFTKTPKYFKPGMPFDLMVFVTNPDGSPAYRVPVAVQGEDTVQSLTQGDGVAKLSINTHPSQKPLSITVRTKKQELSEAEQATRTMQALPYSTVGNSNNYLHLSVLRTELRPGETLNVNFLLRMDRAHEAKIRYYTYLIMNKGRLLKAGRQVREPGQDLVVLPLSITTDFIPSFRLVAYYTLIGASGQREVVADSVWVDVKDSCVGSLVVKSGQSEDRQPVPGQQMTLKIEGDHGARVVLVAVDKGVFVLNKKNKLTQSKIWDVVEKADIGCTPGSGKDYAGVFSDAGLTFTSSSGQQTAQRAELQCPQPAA
Sequence of plasma purified human complement protein C3 (human) (P01024 672-1663, chain 2 of 2): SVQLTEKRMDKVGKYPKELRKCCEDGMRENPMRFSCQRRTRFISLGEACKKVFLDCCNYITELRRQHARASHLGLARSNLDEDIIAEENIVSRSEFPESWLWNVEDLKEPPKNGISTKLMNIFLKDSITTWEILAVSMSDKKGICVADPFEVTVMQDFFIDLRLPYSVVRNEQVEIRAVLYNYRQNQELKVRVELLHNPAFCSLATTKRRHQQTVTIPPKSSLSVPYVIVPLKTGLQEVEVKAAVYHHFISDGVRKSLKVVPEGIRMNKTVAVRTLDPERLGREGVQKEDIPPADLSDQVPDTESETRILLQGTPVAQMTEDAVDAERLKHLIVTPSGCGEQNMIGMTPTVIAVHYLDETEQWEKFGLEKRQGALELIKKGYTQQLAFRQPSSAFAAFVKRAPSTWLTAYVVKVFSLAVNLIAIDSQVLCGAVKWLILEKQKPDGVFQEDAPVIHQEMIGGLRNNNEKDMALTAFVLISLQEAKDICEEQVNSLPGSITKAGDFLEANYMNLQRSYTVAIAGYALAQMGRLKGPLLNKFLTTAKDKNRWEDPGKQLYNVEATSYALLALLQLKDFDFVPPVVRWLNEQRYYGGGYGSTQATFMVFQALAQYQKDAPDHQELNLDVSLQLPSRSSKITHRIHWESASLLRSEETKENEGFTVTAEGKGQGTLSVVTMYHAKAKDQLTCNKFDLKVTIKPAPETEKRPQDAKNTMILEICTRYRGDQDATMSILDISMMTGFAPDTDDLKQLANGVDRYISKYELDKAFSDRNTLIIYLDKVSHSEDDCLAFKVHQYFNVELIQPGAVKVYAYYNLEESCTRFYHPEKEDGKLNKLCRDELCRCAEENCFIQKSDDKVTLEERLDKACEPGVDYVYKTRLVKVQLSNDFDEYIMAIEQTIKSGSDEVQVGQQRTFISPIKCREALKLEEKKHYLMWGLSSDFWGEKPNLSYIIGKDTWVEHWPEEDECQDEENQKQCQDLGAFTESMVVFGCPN

B1: MTSP-1 Q38H/I41S/D60bV/F60eQ/Y60gF/ins97aE/F97T/T98G/F99L/C122S/Q175L/Q192I (enzyme)
chain: VVGGTDADEGEWPWQVSLHALGHGHSCGASLISPNWLVSAAHCYIDVRGQRFSDPTQWTAFLGLHDQSQRSAPGVQERRLKRIISHPFFNDTEGLDYDIALLELEKPAEYSSMVRPSLPDASHVFPAGKAIWVTGWGHTQYGGTGALILQKGEIRVINQTTCENLLPQLITPRMMCVGFLSGGVDSCIGDSGGPLSSVEADGRIFQAGVVSWGDGCAQRNKPGVYTRLPLFRDWIKENTGV
Take B1: the EC50 of hC3 cleavage is 5.95 nM.

B2: MTSP-1 Q38R/I41E/ins97aE/F97T/T98G/F99L/C122S/G151N/Q175L/Q192T (enzyme)
chain: VVGGTDADEGEWPWQVSLHALGRGHECGASLISPNWLVSAAHCYIDDRGFRYSDPTQWTAFLGLHDQSQRSAPGVQERRLKRIISHPFFNDTEGLDYDIALLELEKPAEYSSMVRPISLPDASHVFPAGKAIWVTGWGHTQYGGTNALILQKGEIRVINQTTCENLLPQLITPRMMCVGFLSGGVDSCTGDSGGPLSSVEADGRIFQAGVVSWGDGCAQRNKPGVYTRLPLFRDWIKENTGV
In turn, B2 showed an EC50 of hC3 cleavage of 105 nM.

B3: MTSP-1 Q38H/I41A/D60bV/F60eI/Y60gW/F97T/ins97aE/T98G/F99L/C122S/G151N/Q175L/Q192D (enzyme)
chain: B2 chain with R23H, E26A, D47V, F50I, Y52W, T189D
The molecule B3 showed an EC50 of hC3 cleavage of 2.91 nM.

B4: MTSP-1 Q38T/I41S/D60bV/F60eR/ins97aV/F97D/T98P/F99L/C122S/G151N/Q175R/Q192V (enzyme)
chain: B2 chain with R23T, E26S, D47V, F50R, T92D, E93V, G94P, L170R, T189V
B4 displayed an EC50 of hC3 cleavage of 15.7 nM.

B5: MTSP-1 Q38D/I41S/D60bT/F60eR/ins97aV/F97D/T98P/F99L/C122S/G151K/Q175S/Q192V (enzyme)
chain: B2 chain with R23D, E26S, D47T, F50R, T92D, E93V, G94P, N146K, L170S, T189V
Take B5: the EC50 of hC3 cleavage is 48.1 nM.

B6: MTSP-1 Q38G/H40R/I41H/D60bH/F60eK/F97T/ins97aE/T98G/F99L/C122S/Q175L/V183A/Q192G (enzyme)
chain: B2 chain with R23G, H25R, E26H, D47H, F50K, N146G, V178A, T189G
Take B6: the EC50 of hC3 cleavage is 27.7 nM.

B7: MTSP-1 Q38R/I41T/ins97aE/F97T/T98G/F99L/C122S/G151N/Q175L/Q192G (enzyme)
chain: B2 chain with E26T, T189G
As to B7, the EC50 of hC3 cleavage turned out to be 30.6 nM.

B8: MTSP-1 Q38H/I41S/D60bT/F60eT/F97D/ins97aV/T98P/F99L/C122S/G151N/Q175L/Q192V (enzyme)
chain: B2 chain with R23H, E26S, D47T, F50T, T92D, E93V, G94P, T189V
As to B8, the EC50 of hC3 cleavage was found to be 5.08 nM.

B9: MTSP-1 Q38H/I41A/D60bV/F60eT/Y60gW/ins97aE/F97T/T98G/F99L/C122S/Q175L/Q192E (enzyme)
chain: B2 chain with R23H, E26A, D47V, F50T, Y52W, N146G, T189E
In the case of B9, the EC50 of hC3 cleavage was 1.39 nM.

B10: MTSP-1 Q38H/I41A/D60bV/F60eR/Y60gW/ins97aE/F97T/T98G/F99L/C122S/G151N/Q175L/Q192D (enzyme)
chain: B2 chain with R23H, E26A, D47V, F50R, Y52W, T189D
Take B10: the EC50 of hC3 cleavage came to 7.74 nM.

B11: MTSP-1 Q38H/I41S/D60bS/F60eR/Y60gW/F97T/ins97aE/T98G/F99L/C122S/Q175L/Q192E (enzyme)
chain: B2 chain with R23H, E26S, D47S, F50R, Y52W, N146G, T189E
Take B11: the EC50 of hC3 cleavage was 8.35 nM.

B12: MTSP-1 Q38H/I41A/D60bA/F60eR/ins97aE/F97T/T98G/F99L/C122S/G151N/Q175L/Q192E (enzyme)
chain: B2 chain with R23H, E26A, D47A, F50R, T189E
As to B12, the EC50 of hC3 cleavage stood at 14.2 nM.

B13: MTSP-1 Q38T/I41S/D60bG/F60eM/ins97aV/F97D/T98P/F99L/C122S/G151N/Q175S/Q192S (enzyme)
chain: B2 chain with R23T, E26S, D47G, F50M, T92D, E93V, G94P, L170S, T189S
The molecule B13 registered an EC50 of hC3 cleavage of 28.8 nM.

B14: MTSP-1 Q38H/I41A/D60bT/F60eK/Y60gW/ins97aE/F97T/T98G/F99L/C122S/Q175L/Q192D (enzyme)
chain: B2 chain with R23H, E26A, D47T, F50K, Y52W, N146G, T189D
On to B14, for which the EC50 of hC3 cleavage was determined as 3.82 nM.

B15: MTSP-1 Q38H/I41A/D60bE/F60eH/Y60gW/ins97aE/F97T/T98G/F99L/C122S/Q175L/Q192D (enzyme)
chain: B2 chain with R23H, E26A, D47E, F50H, Y52W, N146G, T189D
In turn, B15 came in with an EC50 of hC3 cleavage of 5.38 nM.

B16: MTSP-1 Q38H/I41A/D60bT/F60eH/Y60gW/ins97aE/F97T/T98G/F99L/C122S/Q175L/Q192D (enzyme)
chain: B2 chain with R23H, E26A, D47T, F50H, Y52W, N146G, T189D
B16 displayed an EC50 of hC3 cleavage of 2.28 nM.

B17: MTSP-1 Q38H/I41S/D60bT/F60eS/ins97aV/F97D/T98P/F99L/C122S/G151H/Q175A/Q192D (enzyme)
chain: B2 chain with R23H, E26S, D47T, F50S, T92D, E93V, G94P, N146H, L170A, T189D
On to B17, for which the EC50 of hC3 cleavage worked out at 67.8 nM.

B18: MTSP-1 Q38H/I41A/D60bV/F60eI/ins97aE/F97T/T98G/F99L/C122S/Q175L/Q192E (enzyme)
chain: B2 chain with R23H, E26A, D47V, F50I, N146G, T189E
Regarding B18, the EC50 of hC3 cleavage was determined as 7.64 nM.

B19: MTSP-1 Q38H/I41A/F60eA/Y60gW/ins97aE/F97T/T98G/F99L/C122S/Q175L/Q192E (enzyme)
chain: B2 chain with R23H, E26A, F50A, Y52W, N146G, T189E
In the case of B19, the EC50 of hC3 cleavage was found to be 5.93 nM.

B20: MTSP-1 Q38H/I41S/D60bF/F60eV/F97D/ins97aV/T98P/F99L/C122S/G151N/Q175L/Q192A (enzyme)
chain: B2 chain with R23H, E26S, D47F, F50V, T92D, E93V, G94P, T189A
The molecule B20 came in with an EC50 of hC3 cleavage of 1.57 nM.

B21: MTSP-1 Q38L/I41T/D60bR/F60eL/Y60gM/F97T/ins97aE/T98G/F99L/C122S/G151N/Q175L/Q192G (enzyme)
chain: B2 chain with R23L, E26T, D47R, F50L, Y52M, T189G
B21 had an EC50 of hC3 cleavage of 23.7 nM.

B22: MTSP-1 I41T/D60bW/F60eH/F97D/ins97aV/T98P/F99L/C122S/G151N/Q175L/Q192G (enzyme)
chain: B2 chain with R23Q, E26T, D47W, F50H, T92D, E93V, G94P, T189G
Consider B22, for which the EC50 of hC3 cleavage came out at 3.1 nM.

B23: MTSP-1 Q38W/I41A/ins97aV/F97D/T98P/F99L/C122S/G151T/Q175S/Q192D (enzyme)
chain: B2 chain with R23W, E26A, T92D, E93V, G94P, N146T, L170S, T189D
In turn, B23 came in with an EC50 of hC3 cleavage of 68 nM.

B24: MTSP-1 Q38Y/I41A/D60bL/F60eQ/ins97aV/F97D/T98P/F99L/C122S/G151N/Q175M/Q192A (enzyme)
chain: B2 chain with R23Y, E26A, D47L, F50Q, T92D, E93V, G94P, L170M, T189A
Take B24: the EC50 of hC3 cleavage amounted to 1.53 nM.

B25: MTSP-1 Q38H/I41A/D60bE/F60eH/Y60gW/F97T/ins97aE/T98G/F99L/C122S/G151N/Q175L/Q192D (enzyme)
chain: B2 chain with R23H, E26A, D47E, F50H, Y52W, T189D
On to B25, for which the EC50 of hC3 cleavage amounted to 8.28 nM.

B26: MTSP-1 Q38S/I41S/F60eR/F97T/ins97aE/T98G/F99L/C122S/G151N/Q175L/Q192S (enzyme)
chain: B2 chain with R23S, E26S, F50R, T189S
Molecule B26 yielded an EC50 of hC3 cleavage of 6.26 nM.

B27: MTSP-1 Q38F/I41S/D60bF/F60eR/Y60gF/F97T/ins97aE/T98G/F99L/C122S/G151N/Q175L/Q192V (enzyme)
chain: B2 chain with R23F, E26S, D47F, F50R, Y52F, T189V
Regarding B27, the EC50 of hC3 cleavage was 1.96 nM.

B28: MTSP-1 Q38H/I41S/D60bT/F60eS/F97D/ins97aV/T98P/F99L/C122S/G151H/Q175L/Q192D (enzyme)
chain: B2 chain with R23H, E26S, D47T, F50S, T92D, E93V, G94P, N146H, T189D
B28 yielded an EC50 of hC3 cleavage of 45.4 nM.

B29: MTSP-1 Q38H/I41S/D60bT/F60eS/ins97aV/F97D/T98P/F99L/C122S/G151H/Q175L/Q192E (enzyme)
chain: B2 chain with R23H, E26S, D47T, F50S, T92D, E93V, G94P, N146H, T189E
For B29, the EC50 of hC3 cleavage is 29.8 nM.

B30: MTSP-1 Q38H/I41A/F97T/ins97aE/T98G/F99L/C122S/Q175L/Q192G (enzyme)
chain: B2 chain with R23H, E26A, N146G, T189G
As to B30, the EC50 of hC3 cleavage was determined as 3.9 nM.

B31: MTSP-1 Q38V/I41S/D60bT/F60eT/F97D/ins97aV/T98P/F99L/C122S/G151N/Q175H/Q192S (enzyme)
chain: B2 chain with R23V, E26S, D47T, F50T, T92D, E93V, G94P, L170H, T189S
For the molecule B31, the EC50 of hC3 cleavage came out at 18.5 nM.

B32: MTSP-1 Q38L/I41T/D60bA/F60eL/ins97aV/F97D/T98P/F99L/C122S/G151H/Q175M/Q192T (enzyme)
chain: B2 chain with R23L, E26T, D47A, F50L, T92D, E93V, G94P, N146H, L170M
B32 displayed an EC50 of hC3 cleavage of 20.2 nM.

B33: MTSP-1 Q38H/I41T/D60bV/F60eQ/F97T/ins97aE/T98G/F99L/C122S/Q175L/Q192G (enzyme)
chain: B2 chain with R23H, E26T, D47V, F50Q, N146G, T189G
For B33, the EC50 of hC3 cleavage worked out at 4.93 nM.

B34: MTSP-1 Q38R/I41S/D60bY/F60eD/ins97aV/F97D/T98P/F99L/C122S/G151N/Q175M/Q192A (enzyme)
chain: B2 chain with E26S, D47Y, F50D, T92D, E93V, G94P, L170M, T189A
Turning to B34, the EC50 of hC3 cleavage was 3.22 nM.

B35: MTSP-1 Q38W/I41S/D60bG/F60eI/F97D/ins97aV/T98P/F99L/C122S/G151N/Q175A/Q192D (enzyme)
chain: B2 chain with R23W, E26S, D47G, F50I, T92D, E93V, G94P, L170A, T189D
For B35, the EC50 of hC3 cleavage amounted to 43.1 nM.

B36: MTSP-1 Q38L/I41A/D60bH/F60eT/ins97aV/F97D/T98P/F99L/C122S/G151Q/Q175A/Q192G (enzyme)
chain: B2 chain with R23L, E26A, D47H, F50T, T92D, E93V, G94P, N146Q, L170A, T189G
On to B36, for which the EC50 of hC3 cleavage turned out to be 5.73 nM.
